Experimental data as given in patent publication US20170165339A1 (IMMATICS BIOTECHNOLOGIES, published 2017).

Target: HLA-A*02 (human)
Experiment: UV peptide-exchange ELISA, yield grade

| Binder | peptide exchange yield [%] |
| --- | --- |
| GLLPLLHRA [GLLPLLHRA (SEQ ID NO: 12)] | ≥ 75 |
| ALLERGELFV [ALLERGELFV (SEQ ID NO: 47)] | 50 to 75 |
| ALFENTPKA [ALFENTPKA (SEQ ID NO: 41)] | 20 to 49 |
| ILAPFSVDL [ILAPFSVDL (SEQ ID NO: 37)] | 50 to 75 |
| AIQDEIRSV [AIQDEIRSV (SEQ ID NO: 21)] | 50 to 75 |
| FVDPNTQEKV [FVDPNTQEKV (SEQ ID NO: 22)] | 20 to 49 |
| ILLDLTDNRL [ILLDLTDNRL (SEQ ID NO: 18)] | 50 to 75 |
| ILDHEVPSL [ILDHEVPSL (SEQ ID NO: 7)] | 50 to 75 |
| ALFDSLRHV [ALFDSLRHV (SEQ ID NO: 6)] | 50 to 75 |
| ALSPSYLTV [ALSPSYLTV (SEQ ID NO: 11)] | 50 to 75 |
| ALQEELTEL [ALQEELTEL (SEQ ID NO: 26)] | 50 to 75 |
| GIVAHIQEV [GIVAHIQEV (SEQ ID NO: 5)] | 50 to 75 |
| FLVDGSYSI [FLVDGSYSI (SEQ ID NO: 9)] | 50 to 75 |
| ALNIATHVL [ALNIATHVL (SEQ ID NO: 49)] | 50 to 75 |
| FLLATEVVTV [FLLATEVVTV (SEQ ID NO: 34)] | ≥ 75 |
| HLLEGSVGV [HLLEGSVGV (SEQ ID NO: 39)] | 50 to 75 |
| ALFAPLVHL [ALFAPLVHL (SEQ ID NO: 60)] | 50 to 75 |
| FLLPFSTVYL [FLLPFSTVYL (SEQ ID NO: 35)] | 50 to 75 |
| FLGPRIIGL [FLGPRIIGL (SEQ ID NO: 38)] | 50 to 75 |
| AMIEEVFEA [AMIEEVFEA (SEQ ID NO: 30)] | 20 to 49 |
| GIAGSLKTV [GIAGSLKTV (SEQ ID NO: 10)] | 50 to 75 |
| GLSQITNQL [GLSQITNQL (SEQ ID NO: 20)] | 50 to 75 |
| ALMAMLVYV [ALMAMLVYV (SEQ ID NO: 13)] | 20 to 49 |
| ILFHGVFYA [ILFHGVFYA (SEQ ID NO: 50)] | 50 to 75 |
| FLHDEKEGIYI [FLHDEKEGIYI (SEQ ID NO: 56)] | 50 to 75 |
| ILAKDLFEI [ILAKDLFEI (SEQ ID NO: 14)] | ≥ 75 |

Further lines, results first:

| peptide exchange yield [%] | Binder |
| --- | --- |
| 50 to 75 | SLATKIVEA [SLATKIVEA (SEQ ID NO: 55)] |
| 50 to 75 | KMVGLVVAI [KMVGLVVAI (SEQ ID NO: 53)] |
| < 20 | LLDSVSRL [LLDSVSRL (SEQ ID NO: 42)] |
| ≥ 75 | KLMPGTYTL [KLMPGTYTL (SEQ ID NO: 4)] |
| 50 to 75 | KLLDPQEFTL [KLLDPQEFTL (SEQ ID NO: 59)] |
| ≥ 75 | KLEENGDLYL [KLEENGDLYL (SEQ ID NO: 3)] |
| 50 to 75 | TITETTVEV [TITETTVEV (SEQ ID NO: 31)] |
| ≥ 75 | LLFSRLCGA [LLFSRLCGA (SEQ ID NO: 51)] |
| 50 to 75 | RLMEENWNA [RLMEENWNA (SEQ ID NO: 27)] |
| 50 to 75 | YLLPLLPAL [YLLPLLPAL (SEQ ID NO: 58)] |
| 50 to 75 | VQLDSIEDLEV [VQLDSIEDLEV (SEQ ID NO: 32)] |
| ≥ 75 | YTLDIPVLFGV [YTLDIPVLFGV (SEQ ID NO: 16)] |
| 20 to 49 | QVIEDSTGV [QVIEDSTGV (SEQ ID NO: 48)] |
| 50 to 75 | SISDNVWEV [SISDNVWEV (SEQ ID NO: 19)] |
| 50 to 75 | VLIDPQWVLTA [VLIDPQWVLTA (SEQ ID NO: 40)] |
| ≥ 75 | LLYPEPWSV [LLYPEPWSV (SEQ ID NO: 1)] |
| 50 to 75 | SLFETAWEA [SLFETAWEA (SEQ ID NO: 44)] |
| 50 to 75 | SLFSDEFKV [SLFSDEFKV (SEQ ID NO: 23)] |
| 50 to 75 | TLDEKVAEL [TLDEKVAEL (SEQ ID NO: 24)] |
| 50 to 75 | YIKTELISV [YIKTELISV (SEQ ID NO: 33)] |
| 20 to 49 | TVFTDHMLTV [TVFTDHMLTV (SEQ ID NO: 57)] |
| 50 to 75 | SLPNGKPVSV [SLPNGKPVSV (SEQ ID NO: 28)] |
| 50 to 75 | YLDLSHNQL [YLDLSHNQL (SEQ ID NO: 15)] |
| 50 to 75 | YLLDPSITL [YLLDPSITL (SEQ ID NO: 29)] |
| 50 to 75 | VLNPLITAV [VLNPLITAV (SEQ ID NO: 54)] |
| 20 to 49 | SQFPLPLAV [SQFPLPLAV (SEQ ID NO: 46)] |
| 50 to 75 | TMDSVLVTV [TMDSVLVTV (SEQ ID NO: 25)] |
| 50 to 75 | SLADTNSLAVV [SLADTNSLAVV (SEQ ID NO: 36)] |
